From patent US20100137190A1, “LIQUID COMPOSITION FOR EXTERNAL APPLICATION AND PREPARATION FOR EXTERNAL APPLICATION FOR TREATMENT OF SKIN ULCER” (priority 2006, published 2010) come the findings set out here.

Entries after “also recorded” stand apart in the source; their conditions may differ.

The test system of the data set is ulcer model of delayed skin wound healing (60 sec ethanol exposure model). The experiment in a line: Healing effect of GM-CSF external agent on intractable skin ulcer. The data set is classed as in vivo. The protocol: By using a C57BL/6 mouse, an ulcer model of delayed skin wound healing as an intractable skin ulcer model was produced. Specifically, full thickness dorsal skin tissue with a size of 2×1.5 cm of a C57BL/6 mouse was excised, whereby the fascia was exposed with almost no bleeding. Then, the wound area was completely covered with cotton which had been sufficiently soaked in 70% ethanol, whereby ethanol exposure for 30 sec, 60 sec, 300 sec and 600 sec was carried out. After that, the wound area was air-dried, and the area of the wound area was measured (day 0). 7 days after completion of the experiment, the area of the wound area was measured, which was compared with the area of the wound area on day 0, and a change in the area of the wound area was examined. As a result, the shrinkage of the wound area was reduced as the time of ethanol exposure was increased, and the shrinkage hardly occurred by the 300 sec exposure. Incidentally, the mouse subjected to 600 sec ethanol exposure died at 3 days after the experiment due to deterioration of systemic symptoms. In the case where the time of ethanol exposure was short such as 30 sec exposure or 60 sec exposure, the healing was delayed because the tissue around the wound area directly received degenerative damage due to ethanol, however, granulation tissue was formed in the wound area in one week after the ethanol exposure, and the wound area was covered with epidermal tissue in about 3 weeks and the healing was completed. The 60 sec exposure was to be a factor of delaying the shrinkage of the wound area, but there was no systemic symptom and its effect was sufficient, therefore, this mouse was adopted as an ulcer model of delayed skin wound healing.
As GM-CSF, a mouse-derived recombinant (R&D System) was used. A solution obtained by dissolving this GM-CSF in an atelocollagen solution at a concentration of 20 μg/100 μL was applied to an affected area of the above-mentioned ulcer model of delayed skin wound healing (60 sec ethanol exposure model) and coagulated, and evaluation was performed in the healing process for 7 days. Further, a group in which only an atelocollagen solution (a 3 mg/mL hydrochloric acid solution) was applied to the affected area and coagulated was used as a control. […] When the shrinkage of the wound area after 7 days was examined, the relative area of the wound area in the GM-CSF administration group was larger by about 15% than that of the control group, and the shrinking action of natural healing of a wound area was inhibited, and the wound area was exacerbated.

B1: GM-CSF: granulocyte macrophage colony stimulating factor, mouse-derived recombinant (R&D System), dissolved in atelocollagen solution (protein, UniProt P01587 18-141, looked up)
Granulocyte-macrophage …: APTRSPITVTRPWKHVEAIKEALNLLDDMPVTLNEEVEVVSNEFSFKKLTCVQTRLKIFEQGLRGNFTKLKGALNMTASYYQTYCPPTPETDCETQVTTYADFIDSLKTFLTDIPFECKKPGQK
With B1, the “histology / symptoms of the wound area (edema, swelling)” value (20 μg/100 μL in atelocollagen solution, 7-day period) is “edema was noted”. Also, the “thickness of granulation tissue compared with control group” value (20 μg/100 μL in atelocollagen solution, 7 days) was “slightly thicker”. In addition, the “relative area of the wound area, larger than that of the control group” value (20 μg/100 μL in atelocollagen solution, after 7 days, control atelocollagen only) was “about 15%”. In addition, the “wound healing effect on intractable skin ulcer (overall finding)” value (external application) is reported as “does not have an effect on intractable skin ulcers; also recorded: does not have a wound healing accelerating effect”.
